The assay addresses recombinant human FOXO3a (human, UniProt O43524 1-673). As to the kind of experiment: pull-down.

Chain of recombinant human FOXO3a (O43524 whole entry): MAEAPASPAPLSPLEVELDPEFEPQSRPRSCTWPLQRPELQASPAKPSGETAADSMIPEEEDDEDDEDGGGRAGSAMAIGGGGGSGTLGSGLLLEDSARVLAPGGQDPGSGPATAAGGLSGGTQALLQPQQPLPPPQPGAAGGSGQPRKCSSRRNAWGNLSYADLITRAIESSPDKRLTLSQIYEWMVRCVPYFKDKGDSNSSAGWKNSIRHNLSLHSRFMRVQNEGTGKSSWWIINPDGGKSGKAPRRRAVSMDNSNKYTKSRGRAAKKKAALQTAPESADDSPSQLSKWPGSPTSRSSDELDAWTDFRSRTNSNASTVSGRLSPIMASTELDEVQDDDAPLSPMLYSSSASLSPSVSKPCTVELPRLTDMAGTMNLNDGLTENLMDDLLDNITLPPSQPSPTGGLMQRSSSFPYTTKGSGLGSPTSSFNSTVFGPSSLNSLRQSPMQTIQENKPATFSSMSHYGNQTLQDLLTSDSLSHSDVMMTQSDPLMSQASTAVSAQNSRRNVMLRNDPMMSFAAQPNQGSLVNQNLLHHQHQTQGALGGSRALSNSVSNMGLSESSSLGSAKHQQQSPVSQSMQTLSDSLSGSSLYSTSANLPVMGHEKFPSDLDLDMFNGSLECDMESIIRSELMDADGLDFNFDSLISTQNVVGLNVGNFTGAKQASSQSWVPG

B1: GST-ATM fragment spanning 2,842–3,056 aa (domain or fragment)
chain: PAIWFEKRLAYTRSVATSSIVGYILGLGDRHVQNILINEQSAELVHIDLGVAFEQGKILPTPETVPFRLTRDIVDGMGITGVEGVFRRCCEKTMEVMRNSQETLLTIVEVLLYDPLFDWTMNPLKALYLQQRPEDETELHPTLNADDQECKRNLSDIDQSFNKVAERVLMRLQEKLKGVEEGTVLSVGGQVNLLIQQAIDPKNLSRLFPGWKAWV
For the molecule B1, the binding result is “binds”.

(Values after article PMC5003812 (Cell Reports, 2016).)
